Experimental data reported in patent US20240132578A1.

Assays:
[1] = target: HIV-1 Env of isolate SF162 (HIV-1) (UniProt P19550); assay: cell-based or functional assay
[2] = target: HIV-1 MGRM-AG-008 Env (pseudovirus) (HIV-1); assay: cell-based or functional assay
[3] = target: HIV-1 92RW020 Env (HIV-1); assay: cell-based or functional assay
[4] = target: HIV-1 Env of isolate 93IN905 (HIV-1); assay: cell-based or functional assay
[5] = target: HIV-1 Env of isolate 93MW959 (HIV-1); assay: cell-based or functional assay
[6] = target: HIV-1 Env of isolate 97ZA012 (HIV-1); assay: cell-based or functional assay
[7] = target: HIV-1 Env of isolate 98IN022 (HIV-1); assay: cell-based or functional assay
[8] = target: HIV-1 Env of isolate MGRM-AE-004 (pseudovirus) (HIV-1); assay: cell-based or functional assay
[9] = target: HIV-1 Env of isolate MGRM-AE-005 (pseudovirus) (HIV-1); assay: cell-based or functional assay
[10] = target: HIV-1 Env of isolate MGRM-AE-006 (pseudovirus) (HIV-1); assay: cell-based or functional assay
[11] = target: HIV-1 Env of isolate MGRM-Chronic-B-024 (HIV-1); assay: cell-based or functional assay
[12] = target: HIV-1 Env of isolate MGRM-F1-018 (HIV-1); assay: cell-based or functional assay
[13] = target: HIV-1 Env of isolate PVO.4 (HIV-1); assay: cell-based or functional assay
[14] = target: HIV-1 Env of isolate SC422661.8 (HIV-1); assay: cell-based or functional assay
[15] = target: HIV-1 Env of isolate THR0.18 (HIV-1); assay: cell-based or functional assay
[16] = target: HIV-1 Env of isolate TRJ04551.58 (HIV-1); assay: cell-based or functional assay
[17] = target: HIV-1 Env of isolate TRO.11 (HIV-1); assay: cell-based or functional assay
[18] = target: HIV-1 Env of isolate VLGCB3 (HIV-1); assay: cell-based or functional assay
HIV-1 NL43 Env (HIV-1) = assay: cell-based or functional assay
[19] = target: HIV-1 envelope glycoprotein (Env) of isolate CAAN.A2, on pseudovirus (HIV-1); assay: cell-based or functional assay
[20] = target: JR-FL gp120 ΔV1/ΔV2 (HIV-1 JR-FL); assay: ELISA, antigen-coated wells, mAb titrated; EC50 by nonlinear regression
[21] = target: WT JR-FL gp120 (HIV-1 JR-FL); assay: as above
[22] = target: HIV-1 JR-CSF Env T394A (HIV-1 (isolate JR-CSF)) (UniProt P20871); assay: cell-based or functional assay

2F5 (antibody) gave an IC50 (µg/ml), pseudovirus neutralization [1] of 2.52 µg/mL and an IC50 (µg/ml), pseudovirus neutralization [2] of 0.54 µg/mL.
Work on 2G12 (antibody) yielded an IC50 (µg/ml), pseudovirus neutralization [1] of 1.67 µg/mL and an IC50 (µg/ml), pseudovirus neutralization [2] of over 50 µg/mL.
In the case of 4E10 (antibody), the IC50 (µg/ml), pseudovirus neutralization [1] is reported as 4.28 µg/mL and the IC50 (µg/ml), pseudovirus neutralization [2] is reported as 1.48 µg/mL.
1443_C16 (PG16) (TCN-116) (antibody) gave an IC50 (µg/ml), pseudovirus neutralization [1] of over 50 µg/mL and an IC50 (µg/ml), pseudovirus neutralization [2] of 0.002 µg/mL.
1495_C14 (PGC14) (antibody) showed an IC50 (µg/ml), pseudovirus neutralization [1] of under 0.0025 µg/mL and an IC50 (µg/ml), pseudovirus neutralization [2] of 45 µg/mL.
For 1496_C09 (PG9) (TCN-109) (antibody), the IC50, pseudovirus neutralization [3] was 0.161 µg/mL, the IC50 (µg/mL), pseudovirus neutralization [4] was 0.035 µg/mL and the IC50 (µg/mL), pseudovirus neutralization [5] was 0.054 µg/mL. It also gave an IC50 (µg/mL), pseudovirus neutralization [6] of 3.4 µg/mL, an IC50 (µg/mL), pseudovirus neutralization [7] of 0.003 µg/mL and an IC50 (µg/mL), pseudovirus neutralization [8] of 0.009 µg/mL. The IC50 (µg/mL), pseudovirus neutralization [9] was 0.282 µg/mL, the IC50 (µg/mL), pseudovirus neutralization [10] was 0.063 µg/mL and the IC50 (µg/mL), pseudovirus neutralization [11] was 0.222 µg/mL. It also gave an IC50 (µg/mL), pseudovirus neutralization [12] of 0.019 µg/mL, an IC50 (µg/mL), pseudovirus neutralization [13] of 24.8 µg/mL and an IC50 (µg/mL), pseudovirus neutralization [14] of 1.48 µg/mL. The IC50 (µg/mL), pseudovirus neutralization [15] was 26.4 µg/mL, the IC50 (µg/mL), pseudovirus neutralization [16] was 0.858 µg/mL and the IC50 (µg/mL), pseudovirus neutralization [17] was 16.9 µg/mL. For the same substance, the IC50 (µg/mL), pseudovirus neutralization [18] was 0.022 µg/mL and the IC50, pseudovirus neutralization (HIV-1 NL43 Env (HIV-1)) was 0.687 µg/mL.
Work on 4838_L06 (PGT-121) (antibody) yielded an IC50, pseudovirus neutralization (HIV-1 NL43 Env (HIV-1)) of over 10 µg/mL, an IC50, pseudovirus neutralization [19] of 0.011 µg/mL and an EC50 [20] of 0.2 µg/mL. It also gave an EC50 [21] of 0.2 µg/mL.
4858_P08 (PGT-123) (antibody) gave an IC50, pseudovirus neutralization [3] of 0.0038 µg/mL, an IC50 (µg/mL), pseudovirus neutralization [8] of over 50 µg/mL and an IC50 (µg/mL), pseudovirus neutralization [9] of over 50 µg/mL. For the same substance, the IC50 (µg/mL), pseudovirus neutralization [10] was over 50 µg/mL, the Fold IC50 increase relative to wild-type (pseudovirus neutralization) [22] was 0.4 fold and the IC50, pseudovirus neutralization (HIV-1 NL43 Env (HIV-1)) was over 10 µg/mL. For the same substance, the IC50, pseudovirus neutralization [19] was 0.015 µg/mL, the EC50 [20] was 0.3 µg/mL and the EC50 [21] was 0.2 µg/mL.
With 4877_D15 (PGT-122) (antibody) the IC50, pseudovirus neutralization [3] was 0.0072 µg/mL, the IC50 (µg/mL), pseudovirus neutralization [8] was over 50 µg/mL and the IC50 (µg/mL), pseudovirus neutralization [9] was over 50 µg/mL. It also gave an IC50 (µg/mL), pseudovirus neutralization [10] of over 50 µg/mL, an IC50, pseudovirus neutralization (HIV-1 NL43 Env (HIV-1)) of over 10 µg/mL and an IC50, pseudovirus neutralization [19] of 0.011 µg/mL. For the same substance, the EC50 [20] was 0.3 µg/mL and the EC50 [21] was 0.3 µg/mL.
